Data reported in patent US10704030B2, “P450-BM3 variants with improved activity” (Codexis, Inc., priority 2015, dated 2020).

Columns and labels:
Type in all cases: biochemical
[1] = Validation of generalist properties: oxidation of diclofenac by lyophilized P450-BM3 variant, UPLC-MS; details: [Diclofenac] = 1 mM; for TON: TON = [substrate]*% conversion/[P450]; for FIOPC (B12): fold improvement over parent MCYP-P1.2-B12
Procedure, shortened: (§1)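 Lyophilized lysate of E. coli-expressed P450-BM3 variant (stock standardized to 12 μM heme) was incubated 24 h at 30 °C with 1 or 2 mM substrate, 1.0 mM NADP+, 25 mM glucose, 0.5 mg/mL glucose dehydrogenase and 5% DMSO in 100 mM potassium phosphate. Acetonitrile-quenched samples were analyzed by UPLC-MS (positive ESI).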

[2] = Validation of generalist properties: oxidation of imatinib by lyophilized P450-BM3 variant, UPLC-MS; details: [Imatinib] = 1 mM; for TON: TON = [substrate]*% conversion/[P450]; for FIOPC (B02): fold improvement over parent MCYP-P1.2-B02
Procedure, shortened: as §1

[3] = Validation of generalist properties: oxidation of gefitinib by lyophilized P450-BM3 variant, UPLC-MS; details: [Gefitinib] = 1 mM; for TON: TON = [substrate]*% conversion/[P450]; for FIOPC (B12): fold improvement over parent MCYP-P1.2-B12
Procedure, shortened: as §1

[4] = Validation of generalist properties: oxidation of loratadine by lyophilized P450-BM3 variant, UPLC-MS; details: [Loratadine] = 1 mM; for TON: TON = [substrate]*% conversion/[P450]; for FIOPC (B12): fold improvement over parent MCYP-P1.2-B12
Procedure, shortened: as §1

[5] = fold improvement over parent MCYP-P1.2-D06

| Molecule | % Conv. [1] | TON [1] | % Conv. [2] | TON [2] | % Conv. [3] | TON [3] | % Conv. [4] | TON [4] | FIOPC (B12) [1] | FIOPC (B02) [2] | FIOPC (B12) [3] | FIOPC (B12) [4] | FIOPC (D06) [1, 5] | FIOPC (D06) [2, 5] | FIOPC (D06) [3, 5] | FIOPC (D06) [4, 5] |
| --- | --- | --- | --- | --- | --- | --- | --- | --- | --- | --- | --- | --- | --- | --- | --- | --- |
| SEQ ID NO: 12: P450-BM3 parental backbone from the commercially available MCYP panel (MCYP-0343; Codexis) (protein, P450_BM3) MTIKEMPQPKTFGELKNLPLLNTDKPVQALMKIADELGEIFKFEAPGCVTRYLSSQRLIKEACDESRFDKNLSQALKFSRDFAGDGLFTSWTHEINWKKAHNILLPSFSQQAMKGYHAMMVDIAVQLVQKWERLNADEHIEVSEDMTRLTLDTIGLCGFNYRFNSFYRDQPHPFIISMVRALDEVMNKLQRANPDDPAYDENKRQCQEDIKVMNDLVDKIIADRKARGEQSDDLLTQMLNGKDPETGEPLDDGNISYQIITFLIAGHETTSGLLSFALYFLVKNPHVLQKVAEEAARVLVDPVPSYKQVKQLKYVGMVLNEALRLWPTAPAFSLYAKEDTVLGGEYPLEKGDEVMVLIPQLHRDKTIWGDDVEEFRPERFENPSAIPQHAFKPFGNGQRACIGQQFALHEATLVLGMMLKHFDFEDHTNYELDIKETLTLKPEGFVVKAKSKKIPLGGIPSPSTEQSAKKVRKKAENAHNTPLLVLYGSNMGTAEGTARDLADIAMSKGFAPQVATLDSHAGNLPREGAVLIVTASYNGHPPDNAKQFVDWLDQASADEVKGVRYSVFGCGDKNWATTYQKVPAFIDETLAAKGAENIADRGEADASDDFEGTYEEWREHMWSDVAAYFNLDIENSEDNKSTLSLQFVDSAADMPLAKMHGAFSTNVVASKELQQPGSARSTRHLEIELPKEASYQEGDHLGVIPRNYEGIVNRVTARFGLDASQQIRLEAEEEKLAHLPLAKTVSVEELLQYVELQDPVTRTQLRAMAAKTVCPPHKVELEALLEKQAYKEQVLAKRLTMLELLEKYPACEMKFSEFIALLPSIRPRYYSISSSPRVDEKQASITVSVVSGEAWSGYGEYKGIASNYLAELQEGDTITCFISTPQSEFTLPKDPETPLIMVGPGTGVAPFRGFVQARKQLKEQGQSLGEAHLYFGCRSPHEDYLYQEELENAQSEGIITLHTAFSRMPNQPKTYVQHVMEQDGKKLIELLDQGAHFYICGDGSQMAPAVEATLMKSYADVHQVSEADARLWLQQLEEKGRYAKDVWAG | + (0-5.00) | ‡‡ (1001-5000) | ++ (5.01-10.00) | ‡‡ (1001-5000) | + (0-5.00) | ‡ (0-1000) | + (0-5.00) | ‡‡ (1001-5000) |  |  |  |  |  |  |  |  |
| Variant 4: P450-BM3 variant of SEQ ID NO: 10: K32R; C48S; Y52F; I95P; Q111R; L216Y; D232H; P347T; E349K; M491A; N574T; E619D; D722S (protein, P450_BM3, C48S; Y52F; I95P; Q111R; L216Y; D232H; P347T; E349K; M491A; N574T; E619D; D722S) MTIKEMPQPKTFGELKNLPLLNTDKPVQALMRIADELGEIFKFEAPGSVTRFLSSQRLIKEACDESRFDKNLSQALKFARDFAGDGLATSWTHEPNWKKAHNILLPSFSQRAMKGYHAMMVDIAVQLVQKWERLNADEHIEVSEDMTRLTLDTIGLCGFNYRFNSFYRDQPHPFIISMVRALDEVMNKLQRANPDDPAYDENKRQCQEDIKVMNDYVDKIIADRKARGEQSHDLLTQMLNGKDPETGEPLDDGNISYQIITFLIAGHETTSGLLSFALYFLVKNPHVLQKVAEEAARVLVDPVPSYKQVKQLKYVGMVLNEALRLWPTAPAFSLYAKEDTVLGGEYTLKKGDEVMVLIPQLHRDKTIWGDDVEEFRPERFENPSAIPQHAFKPFGNGQRACIGQQFALHEATLVLGMMLKHFDFEDHTNYELDIKETLTLKPEGFVVKAKSKKIPLGGIPSPSTEQSAKKVRKKAENAHNTPLLVLYGSNAGTAEGTARDLADIAMSKGFAPQVATLDSHAGNLPREGAVLIVTASYNGHPPDNAKQFVDWLDQASADEVKGVRYSVFGCGDKTWATTYQKVPAFIDETLAAKGAENIADRGEADASDDFEGTYEEWRDHMWSDVAAYFNLDIENSEDNKSTLSLQFVDSAADMPLAKMHGAFSTNVVASKELQQPGSARSTRHLEIELPKEASYQEGDHLGVIPRNYEGIVNRVTARFGLSASQQIRLEAEEEKLAHLPLAKTVSVEELLQYVELQDPVTRTQLRAMAAKTVCPPHKVELEALLEKQAYKEQVLAKRLTMLELLEKYPACEMKFSEFIALLPSIRPRYYSISSSPRVDEKQASITVSVVSGEAWSGYGEYKGIASNYLAELQEGDTITCFISTPQSEFTLPKDPETPLIMVGPGTGVAPFRGFVQARKQLKEQGQSLGEAHLYFGCRSPHEDYLYQEELENAQSEGIITLHTAFSRMPNQPKTYVQHVMEQDGKKLIELLDQGAHFYICGDGSQMAPAVEATLMKSYADVHQVSEADARLWLQQLEEKGRYAKDVWAG | ++++ (15.01-20.00) | ‡‡‡‡ (10000-50000) | ++++ (15.01-20.00) | ‡‡‡‡ (10000-50000) | ++++ (15.01-20.00) | ‡‡‡‡ (10000-50000) | ++++ (15.01-20.00) | ‡‡‡‡ (10000-50000) | * (0.0-3.0) | *** (5.01-10.0) | *** (5.01-10.0) | * (0.0-3.0) |  |  |  |  |
| Variant 12: P450-BM3 variant of SEQ ID NO: 12: K32R; C48S; Y52F; I95P; Q111R; G115R; D232H; M491A; T577A; A627S; D722S (protein, P450_BM3, C48S; Y52F; I95P; Q111R; G115R; D232H; M491A; T577A; A627S; D722S) MTIKEMPQPKTFGELKNLPLLNTDKPVQALMRIADELGEIFKFEAPGSVTRFLSSQRLIKEACDESRFDKNLSQALKFSRDFAGDGLFTSWTHEPNWKKAHNILLPSFSQRAMKRYHAMMVDIAVQLVQKWERLNADEHIEVSEDMTRLTLDTIGLCGFNYRFNSFYRDQPHPFIISMVRALDEVMNKLQRANPDDPAYDENKRQCQEDIKVMNDLVDKIIADRKARGEQSHDLLTQMLNGKDPETGEPLDDGNISYQIITFLIAGHETTSGLLSFALYFLVKNPHVLQKVAEEAARVLVDPVPSYKQVKQLKYVGMVLNEALRLWPTAPAFSLYAKEDTVLGGEYPLEKGDEVMVLIPQLHRDKTIWGDDVEEFRPERFENPSAIPQHAFKPFGNGQRACIGQQFALHEATLVLGMMLKHFDFEDHTNYELDIKETLTLKPEGFVVKAKSKKIPLGGIPSPSTEQSAKKVRKKAENAHNTPLLVLYGSNAGTAEGTARDLADIAMSKGFAPQVATLDSHAGNLPREGAVLIVTASYNGHPPDNAKQFVDWLDQASADEVKGVRYSVFGCGDKNWAATYQKVPAFIDETLAAKGAENIADRGEADASDDFEGTYEEWREHMWSDVASYFNLDIENSEDNKSTLSLQFVDSAADMPLAKMHGAFSTNVVASKELQQPGSARSTRHLEIELPKEASYQEGDHLGVIPRNYEGIVNRVTARFGLSASQQIRLEAEEEKLAHLPLAKTVSVEELLQYVELQDPVTRTQLRAMAAKTVCPPHKVELEALLEKQAYKEQVLAKRLTMLELLEKYPACEMKFSEFIALLPSIRPRYYSISSSPRVDEKQASITVSVVSGEAWSGYGEYKGIASNYLAELQEGDTITCFISTPQSEFTLPKDPETPLIMVGPGTGVAPFRGFVQARKQLKEQGQSLGEAHLYFGCRSPHEDYLYQEELENAQSEGIITLHTAFSRMPNQPKTYVQHVMEQDGKKLIELLDQGAHFYICGDGSQMAPAVEATLMKSYADVHQVSEADARLWLQQLEEKGRYAKDVWAG | +++ (10.01-15.00) | ‡‡‡ (5001-10000) | ++++ (15.01-20.00) | ‡‡‡‡ (10000-50000) | + (0-5.00) | ‡ (0-1000) | ++ (5.01-10.00) | ‡‡ (1001-5000) |  |  |  |  | ** (3.01-5.0) | *** (5.01-10.0) | * (0.0-3.0) | * (0.0-3.0) |
| Variant 5: P450-BM3 variant of SEQ ID NO: 10: C48S; I95P; G115R; L216Y; S231R; D232H; M491A; N574T; T577A; E619D; D722S (protein, P450_BM3, I95P; G115R; L216Y; S231R; D232H; M491A; N574T; T577A; E619D; D722S) MTIKEMPQPKTFGELKNLPLLNTDKPVQALMKIADELGEIFKFEAPGSVTRYLSSQRLIKEACDESRFDKNLSQALKFARDFAGDGLATSWTHEPNWKKAHNILLPSFSQQAMKRYHAMMVDIAVQLVQKWERLNADEHIEVSEDMTRLTLDTIGLCGFNYRFNSFYRDQPHPFIISMVRALDEVMNKLQRANPDDPAYDENKRQCQEDIKVMNDYVDKIIADRKARGEQRHDLLTQMLNGKDPETGEPLDDGNISYQIITFLIAGHETTSGLLSFALYFLVKNPHVLQKVAEEAARVLVDPVPSYKQVKQLKYVGMVLNEALRLWPTAPAFSLYAKEDTVLGGEYPLEKGDEVMVLIPQLHRDKTIWGDDVEEFRPERFENPSAIPQHAFKPFGNGQRACIGQQFALHEATLVLGMMLKHFDFEDHTNYELDIKETLTLKPEGFVVKAKSKKIPLGGIPSPSTEQSAKKVRKKAENAHNTPLLVLYGSNAGTAEGTARDLADIAMSKGFAPQVATLDSHAGNLPREGAVLIVTASYNGHPPDNAKQFVDWLDQASADEVKGVRYSVFGCGDKTWAATYQKVPAFIDETLAAKGAENIADRGEADASDDFEGTYEEWRDHMWSDVAAYFNLDIENSEDNKSTLSLQFVDSAADMPLAKMHGAFSTNVVASKELQQPGSARSTRHLEIELPKEASYQEGDHLGVIPRNYEGIVNRVTARFGLSASQQIRLEAEEEKLAHLPLAKTVSVEELLQYVELQDPVTRTQLRAMAAKTVCPPHKVELEALLEKQAYKEQVLAKRLTMLELLEKYPACEMKFSEFIALLPSIRPRYYSISSSPRVDEKQASITVSVVSGEAWSGYGEYKGIASNYLAELQEGDTITCFISTPQSEFTLPKDPETPLIMVGPGTGVAPFRGFVQARKQLKEQGQSLGEAHLYFGCRSPHEDYLYQEELENAQSEGIITLHTAFSRMPNQPKTYVQHVMEQDGKKLIELLDQGAHFYICGDGSQMAPAVEATLMKSYADVHQVSEADARLWLQQLEEKGRYAKDVWAG | ++++ (15.01-20.00) | ‡‡‡‡ (10000-50000) | ++++ (15.01-20.00) | ‡‡‡‡ (10000-50000) | ++++ (15.01-20.00) | ‡‡‡‡ (10000-50000) | ++++ (15.01-20.00) | ‡‡‡‡ (10000-50000) | * (0.0-3.0) | *** (5.01-10.0) | *** (5.01-10.0) | * (0.0-3.0) |  |  |  |  |
